Here are results for 2 compounds from patent publication US20030161791A1, “Water-soluble polymer conjugates of retinoic acid” (priority 2001, published 2003).

The nature of data set [1]: Recovery of ATRA and conjugate in plasma and lung tissue after intratracheal instillation in male rats. It counts as in vivo, Sprague Dawley Rats. As for the experimental part:
The following study in rats was conducted to determine plasma and lung tissue concentrations of non-PEGylated all-trans retinoic acid (ATRA control) versus a PEGylated all-trans retinoic acid, mPEG (5 kD)ATRA Ester Conjugate, after intratracheal instillation to male rats.
Animals: Hilltop Lab Animals Inc (P.O. Box 183, Scottdale, Pa. 15683) supplied pre-cannulated jugular vein catheter [JVC]) Sprague Dawley Rats (350-375 grams). The test system included 2 male rats randomly chosen for each of the 6 test groups.
ATRA and PEG-ATRA Samples: Non-PEGylated All-Trans Retinoic Acid was supplied as a powder containing 50% ATRA by weight (Control Article). The powder was stored at −20° C. and protected from light. Methoxy PEG (5 kD) ATRA ester conjugate (Test Article) was provided as a powder containing 5% ATRA by weight which was stored at −20° C. and protected from light.
ATRA Stock Solution/Control (2.0 mg/ml Stock): 3.0 mL of PBS was added to 6.0 mg of the ATRA powder. This solution was dosed as a suspension to the rats after sonication and vortexing.
Methoxy PEG (5 kD) ATRA ester conjugate (20.0 mg/mL Stock): 3.0 mL of PBS was added to 60.0 mg of the methoxy PEG (5 kD) ATRA ester conjugate powder.
Intratracheal Instillation: Administration of the control and test articles was achieved by intratracheal instillation under yellow lighting. The rats were lightly anesthetized using inhaled 3.0-5.0% isoflurane mixed with oxygen in a plexiglass anesthesia chamber. The dose was administered by inserting a gavage needle fitted with a 1 mL syringe into the mouth of the rat down the trachea to just above the carina. The dose was administered into the lungs utilizing this method, and then the gavage needle was removed. The animal was placed back in its cage and allowed to recover from the anesthesia on its own after the dosing procedure.
Rats were dosed IT with 354 μg (1.2 μmole) of RA or […] (1 μmole) ATRA equivalent of mPEG5K-ATRA.
Blood Collection: Predose blood samples of approximately 3.0 ml were collected from the jugular vein catheter into heparinized plasma tubes. At the designated sacrifice time for each animal a surgical plane of anesthesia was induced by using inhaled 3.0-5.0% isofluorane mixed with oxygen. […]
ATRA and PEG-ATRA were extracted from whole rat lung by first weighing and transferring the rat lung to an amber vial and cutting the lung into small pieces. […] The sample was then analyzed by HPLC.
Sample Analysis: Plasma and lung tissue samples were analyzed for all-trans retinoic acid concentrations by reverse-phase high performance liquid chromatography (HPLC) procedures for the lung tissue and by a liquid chromatography tandem mass spectrophotometer (LC-MS-MS) technique for the plasma samples. […]

Data set [2] is described as follows: Hydrolysis rate of PEG-ATRA ester conjugate in phosphate buffer. The class given is physicochemical. Particulars: phosphate buffer 0.1M, pH 7.0, 0.5 wt %, pseudo-first-order kinetics. The method, then:
The rate of hydrolysis in buffer of an exemplary PEG-ATRA conjugate in accordance with the invention was determined at two different temperatures, room temperature and body temperature.
MPEG 5 kDa ATRA (see Example 1) was dissolved in phosphate buffer (0.1M, pH 7.0) at a concentration of 0.5 wt % at temperatures of 23° C. and 37° C. At timed intervals, aliquots were removed for analysis by analytical reverse phase HPLC. The hydrolysis half-lives were obtained using pseudo-first-order kinetics. […] Thus, these conjugates can be characterized as water-soluble prodrugs forms of the retinoid.

The nature of data set [3]: Stability (degradation) of PEG-retinoid compositions versus unmodified parent retinoid. It counts as physicochemical. The conditions noted are these: without free radical scavenger. The source says: Additionally, a composition in accordance with the invention will preferably contain a free radical scavenger such as butylatedhydroxytoluene (BHT), ascorbic acid (vitamin C), or alpha tocopherol […]. […] Incorporation of a free radical scavenger in the composition was effective to substantially reduce or effectively eliminate free-radical induced degradation of the conjugate.

Regarding `CC1=C(/C=C/C(C)=C/C=C/C(C)=C/C(=O)O)C(C)(C)CCC1` [ATRA, all trans retinoic acid, reference compound], the concentration at 1 h in data set [1] (male, Sprague Dawley, other: intratracheal instillation, 354 μg, rat plasma, one-hour timepoint, LC-MS-MS, read-out: plasma retinoic acid (ATRA) concentration) was approximately 145 ng/mL. Also, the “retention in the lung compared with pegylated / unmodified counterpart” value in data set [1] (rat, lung tissue (FIG. 3)) was “to a lesser degree”.
As to “mPEG (5 kDa) ATRA Ester Conjugate [Example 1]”, the “half-life (t 1/2) of the hydrolysis” value was “about 3500 hours” in data set [2] (23° C.) and “about 877 hours” in data set [2] (37° C.). The “stability of the composition relative to compositions of the unmodified parent retinoid” value in data set [3] is given as “more prone to degradation”. Besides, in data set [1] (rat plasma, one-hour timepoint, LC-MS-MS), the “plasma retinoic acid (ATRA) concentration” value is reported as “approximately 65 ng/ml”. In addition, the “retained in the lung” value in data set [1] (rat, for at least up to 2 hours post administration, HPLC of lung tissue) is recorded as “greater than 70 % of the dose”.
